Experimental data as given in patent US10407511B2, “Covalently linked helicar-anti-helicar antibody conjugates and uses thereof” (Hoffmann-La Roche Inc., priority 2014, dated 2019).
Numbered stars: 1 amine (or outer) side, 2 acyl side, 3 side chain; on linkers, the order of the positions; unused ones are H or OH. Square brackets hold non-standard residues; d marks the D form. Ends that are not written are not given here. Pqa = 4-oxo-6-(1-piperazinyl)-3(4H)-quinazoline-acetic acid, O=C(Cn1cnc2ccc(N3CCN([*:1])CC3)cc2c1=O)[*:2]; NMeR = CN[C@@H](CCCNC(=N)N)C(=O)O

What was measured:
NPY5R = target: T1, NPY5R (Homo sapiens, UniProt Q15761); test: effect on Y2Receptor family: NPY5R; assay type: cell-based
T1 sequence (Q15761 1-445): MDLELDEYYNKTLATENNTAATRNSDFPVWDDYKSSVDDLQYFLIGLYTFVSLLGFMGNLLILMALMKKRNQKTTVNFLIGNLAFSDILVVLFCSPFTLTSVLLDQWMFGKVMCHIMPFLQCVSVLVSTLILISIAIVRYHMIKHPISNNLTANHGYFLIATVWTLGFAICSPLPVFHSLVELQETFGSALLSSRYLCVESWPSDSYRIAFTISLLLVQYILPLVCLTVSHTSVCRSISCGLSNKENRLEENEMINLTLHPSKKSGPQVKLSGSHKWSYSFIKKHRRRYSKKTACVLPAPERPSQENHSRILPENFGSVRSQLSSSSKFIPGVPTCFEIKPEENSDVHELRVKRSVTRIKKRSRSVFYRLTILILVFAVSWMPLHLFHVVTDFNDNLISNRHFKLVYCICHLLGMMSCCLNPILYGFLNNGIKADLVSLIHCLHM

NPY2R = target: T2, NPY2R (Homo sapiens, UniProt P49146); test: effect on Y2Receptor family: NPY2R; assay type: cell-based
T2 sequence (P49146 1-381): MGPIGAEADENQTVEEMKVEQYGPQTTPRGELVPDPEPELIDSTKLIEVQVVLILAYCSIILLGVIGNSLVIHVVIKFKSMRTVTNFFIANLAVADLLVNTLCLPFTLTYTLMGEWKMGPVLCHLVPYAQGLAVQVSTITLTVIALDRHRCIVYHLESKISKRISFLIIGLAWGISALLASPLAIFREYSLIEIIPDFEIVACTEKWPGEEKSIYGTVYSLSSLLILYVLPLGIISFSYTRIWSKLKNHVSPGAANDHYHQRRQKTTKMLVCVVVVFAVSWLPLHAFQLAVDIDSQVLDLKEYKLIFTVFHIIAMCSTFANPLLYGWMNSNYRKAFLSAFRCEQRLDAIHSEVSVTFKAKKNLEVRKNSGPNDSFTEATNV

NPY4R = NPY4R (Homo sapiens, UniProt P50391); test: effect on Y2Receptor family: NPY4R; assay type: cell-based
Chain of NPY4R (P50391 whole entry, species assumed): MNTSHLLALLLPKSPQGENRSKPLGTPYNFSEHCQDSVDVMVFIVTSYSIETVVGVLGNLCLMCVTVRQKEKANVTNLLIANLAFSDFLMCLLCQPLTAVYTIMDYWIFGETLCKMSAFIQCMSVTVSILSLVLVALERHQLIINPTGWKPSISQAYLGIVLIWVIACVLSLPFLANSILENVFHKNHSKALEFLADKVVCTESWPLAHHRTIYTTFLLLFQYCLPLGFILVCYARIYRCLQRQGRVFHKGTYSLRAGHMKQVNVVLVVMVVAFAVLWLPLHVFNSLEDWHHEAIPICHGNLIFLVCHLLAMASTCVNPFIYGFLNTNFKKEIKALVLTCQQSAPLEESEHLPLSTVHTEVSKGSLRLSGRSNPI

NPY1R = target: T3, NPY1R (Homo sapiens, UniProt P25929); test: effect on Y2Receptor family: NPY1R; assay type: cell-based
T3 sequence (P25929 1-384): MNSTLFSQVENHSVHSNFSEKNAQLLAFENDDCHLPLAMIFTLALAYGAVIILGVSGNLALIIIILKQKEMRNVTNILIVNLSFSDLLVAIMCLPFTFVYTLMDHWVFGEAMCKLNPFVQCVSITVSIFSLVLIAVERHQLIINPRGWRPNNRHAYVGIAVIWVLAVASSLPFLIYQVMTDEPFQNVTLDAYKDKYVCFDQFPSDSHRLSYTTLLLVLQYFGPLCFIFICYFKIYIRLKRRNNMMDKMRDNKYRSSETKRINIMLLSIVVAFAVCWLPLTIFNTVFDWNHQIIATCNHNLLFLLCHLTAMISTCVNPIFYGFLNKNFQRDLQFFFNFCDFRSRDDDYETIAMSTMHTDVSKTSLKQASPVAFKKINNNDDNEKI

[1] = Dig-peptide serum kinetic (Western blot of digoxigenylated PYY in serum); assay type: in vivo, mice (strain NRMI)
Method: Serum samples were stored at −80° C.
The determination of the amount of digoxigenylated peptide in the serum at the given time points was difficult compared to the detection of Dig-Cy5 as no direct means to detect the polypeptide in serum samples was available. Therefore, a Western-Blot related assay to detect digoxigenylated peptide in serum was established. In a first step, the serum samples were separated on reducing SDS-PAGE. Because sample preparation included exposure of the serum to high concentrations of SDS and reducing agents, complexed Dig-polypeptide conjugates can become released from the (completely denatured/unfolded) anti-digoxigenin antibody, whereas covalently conjugates remained bound. To mediate the release of the polypeptide from the non-covalent antibody complex and separate the individual components by SDS-PAGE, 2 μl of each serum sample was diluted in 18 μl 20 mM histidine/140 mM NaCl pH 6.0, mixed with 6.7 μl of 4×LDS sample buffer and 3 μl of 10× sample reducing agent (NuPAGE, Invitrogen) for 5 min at 95° C. As a control, 2 μl of serum of an untreated mouse of the same strain was used. Samples were applied to a 4-12% Bis-Tris Gel (NuPAGE, Invitrogen) which was run at 200 V/120 mA for 20 minutes using 1×MES (Invitrogen) as a running buffer. Subsequently, separated polypeptides were blotted onto a PVDF membrane (0.22 μm pore size, Invitrogen) using the XCell Sure Lock® Mini-Cell system (Invitrogen) for 40 min at 25 V/130 mA. Membranes were blocked in 1% skim milk in 1×PBS+1% Tween20 (PBST) for 1 h at RT. Digoxigenylated polypeptides were subsequently detected on the membrane with an anti-digoxigenin antibody. For that, anti-digoxigenin antibody was applied to the membranes in a concentration of 13 μg/ml in 10 ml of 1% skim milk/PBST for 2 h at RT. Membranes were washed for 3×5 min in 1×PBST. Anti-mouse IgG Fab-fragments coupled to POD from the LumiLight^PLUS Western Blotting Kit (Roche) was applied in a 1:25 dilution in 10 ml of 1% skim milk/PBST for 1 h at RT. […] Chemiluminescence was detected with the LumiImager F1 (Roche) with an exposure time of 20 min.

[2] = target: anti-helicar motif amino acid sequence antibody; test: binding [Kd] of PYY peptides by anti-helicar antibody; conditions: PYY peptide bound by anti-helicar antibody

Row | NPY5R (NPY5R) | NPY2R (NPY2R) [nM] | NPY4R (NPY4R) | NPY1R (NPY1R) | Kd [2] [µM] | Substance | digoxigenylated polypeptide signal in serum ([1]; 5 min after administration) | digoxigenylated polypeptide signal in serum ([1]; later time points up to 24 hrs.) | half-life in the serum ([1]; mouse, in vivo)
1 | inactive | 1.0 | inactive | inactive | – | Ac-Ile-Lys-Pqa-Arg-His-Tyr-Leu-Asn-Trp-Val-Thr-Arg-Gln-(NMe)-Arg-Try-NH2 * 4 HOAc (Ac-IK[Pqa]RHYLNWVTRQ[NMeR]Y-NH2; also: 4 HOAc salt) [reference compound] | – | – | –
2 | – | – | – | – | – | DIG-PYY: digoxigenylated PYY polypeptide | only in trace amounts | no defined polypeptide band was detectable | very short half-life
3 | inactive | 6.38 | inactive | – | 0.012 | IKPEAPGEDASPEAHLANEVARLHYLNLVTRQRY-NH2 [PYY_helicar] | – | – | –
